Reference: the supplement of paper PMC10126150
± gives the standard deviation of the averaged measurements.

Tested on: ATP
Test: switch fluorescence ratio, 500 uM ATP over buffer (Cy3 cluster intensity, sum of 5 cycles each) (fold (ratio)); higher = stronger signal-on switching upon ATP binding; sequences stand for … in TCGTCGGCAGCGTCAGATGTGTATAAGAGACAGTTTTTTTTTTTTTTTTTTTTTTTTT…TC
Conditions: aptamer strand: ATP DNA aptamer (quencher-CACCTGGGGGAGTATTGCGGAGGAAGG + anchor), 100 nM annealed; ATP concentration: 500 uM
In short: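 Clusters with intensities outside 100-1000 RFU were excluded. The remaining Cy3-labelled switching-strand clusters on a modified Illumina MiSeq flow-cell had been annealed to 100 nM quencher-labelled ATP aptamer and imaged in selection buffer, then after 15 min with 500 uM ATP at 22 °C, for five cycles separated by NaOH stripping and re-annealing. The fluorescence ratio, averaged per switch-domain sequence, is each cluster's summed target-cycle Cy3 intensity over its summed buffer-cycle Cy3 intensity.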
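Also: ATP exposure 15 min at 22 °C before imaging.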

For TCACGTTTTT, the switch fluorescence ratio was 1.01 ± 0.031.
TCACTAAAAA showed a switch fluorescence ratio of 0.979 ± 0.12.
In the case of TCACTCATTT, the switch fluorescence ratio is reported as 1.01 ± 0.019.
Work on TCACTTAGAA yielded a switch fluorescence ratio of 1.04 ± 0.016.
For TCACTTGAGC, the switch fluorescence ratio was 1.011 ± 0.0091.
With TCAGAAATGT the switch fluorescence ratio was 1.01 ± 0.021.
For TCAGAAGGTG, the switch fluorescence ratio was 1.59 ± 0.079.
TCAGAATTTT showed a switch fluorescence ratio of 1.04 ± 0.02.
TCAGACAGAT showed a switch fluorescence ratio of 1.02 ± 0.035.
TCAGACTCAG gave a switch fluorescence ratio of 0.992 ± 0.021.
With TCAGACTTTG the switch fluorescence ratio was 0.978 ± 0.022.
TCAGAGAAGA showed a switch fluorescence ratio of 0.962 ± 0.023.
In the case of TCAGAGGGCT, the switch fluorescence ratio is reported as 0.991 ± 0.018.
TCAGAGGGTT gave a switch fluorescence ratio of 1.01 ± 0.031.
In the case of TCAGAGGTTT, the switch fluorescence ratio is reported as 0.973 ± 0.024.
TCAGATATAC showed a switch fluorescence ratio of 1.581 ± 0.0082.
For TCAGCAGGGG, the switch fluorescence ratio was 2.67 ± 1.9.
In the case of TCAGCATGGT, the switch fluorescence ratio is reported as 1.04 ± 0.091.
TCAGCGGGAG showed a switch fluorescence ratio of 1.012 ± 0.0016.
TCAGCGGGTT gave a switch fluorescence ratio of 1.04 ± 0.12.
With TCAGCTCTTC the switch fluorescence ratio was 0.987 ± 0.042.
TCAGGAGGTG was tested, and the switch fluorescence ratio was 1.07 ± 0.019.
TCAGGCAGGC was tested, and the switch fluorescence ratio was 0.936 ± 0.052.
With TCAGGCGGC the switch fluorescence ratio was 0.992 ± 0.017.
For TCAGGGACTT, the switch fluorescence ratio was 0.9845 ± 0.0077.
TCAGGGGATT showed a switch fluorescence ratio of 1.02 ± 0.031.
For TCAGGGGCAG, the switch fluorescence ratio was 1.06 ± 0.081.
Sequence TCAGGGGGAG has a switch fluorescence ratio of 1.02 ± 0.054.
With TCAGGGGGCC the switch fluorescence ratio was 1.02 ± 0.077.
For TCAGGGGTAT, the switch fluorescence ratio was 1.03 ± 0.028.
For TCAGGGGTGC, the switch fluorescence ratio was 1.09 ± 0.049.
TCAGGGTAGC gave a switch fluorescence ratio of 1.02 ± 0.02.
For TCAGGGTCCG, the switch fluorescence ratio was 0.961 ± 0.017.
With TCAGTAATCT the switch fluorescence ratio was 1.01 ± 0.058.
For TCAGTACTTT, the switch fluorescence ratio was 0.998 ± 0.043.
Work on TCAGTATGTT yielded a switch fluorescence ratio of 0.965 ± 0.019.
TCAGTGACGG gave a switch fluorescence ratio of 1.0248 ± 0.00071.
TCAGTGAGTA showed a switch fluorescence ratio of 0.98 ± 0.019.
In the case of TCAGTTATCG, the switch fluorescence ratio is reported as 0.985 ± 0.014.
With TCAGTTGGAA the switch fluorescence ratio was 0.977 ± 0.039.
TCAGTTTACT was tested, and the switch fluorescence ratio was 0.998 ± 0.025.
For TCAGTTTTAC, the switch fluorescence ratio was 1.01 ± 0.052.
Sequence TCATAACTTT has a switch fluorescence ratio of 0.984 ± 0.017.
TCATAAGTGA was tested, and the switch fluorescence ratio was 0.9848 ± 0.0083.
With TCATACCATA the switch fluorescence ratio was 1.09 ± 0.03.
With TCATACGTCT the switch fluorescence ratio was 0.986 ± 0.09.
TCATAGGTCA was tested, and the switch fluorescence ratio was 0.972 ± 0.024.
Sequence TCATATACGA has a switch fluorescence ratio of 1.09 ± 0.015.
TCATATACGC was tested, and the switch fluorescence ratio was 1.1 ± 0.011.
TCATATATCT gave a switch fluorescence ratio of 0.9937 ± 0.0058.
With TCATATGGTT the switch fluorescence ratio was 0.999 ± 0.019.
In the case of TCATATGTTG, the switch fluorescence ratio is reported as 1.018 ± 0.0036.
Work on TCATATTTAT yielded a switch fluorescence ratio of 0.996 ± 0.024.
Work on TCATCAGGCC yielded a switch fluorescence ratio of 1.02 ± 0.012.
In the case of TCATCAGTGA, the switch fluorescence ratio is reported as 0.998 ± 0.028.
Work on TCATCCGGAT yielded a switch fluorescence ratio of 1.25 ± 0.049.
TCATCTAGTG gave a switch fluorescence ratio of 1 ± 0.049.
TCATCTGTTG gave a switch fluorescence ratio of 1 ± 0.033.
TCATGAACAC was tested, and the switch fluorescence ratio was 1.01 ± 0.05.
Sequence TCATGACGGT has a switch fluorescence ratio of 1.011 ± 0.0028.
For TCATGAGCTT, the switch fluorescence ratio was 1.039 ± 0.0015.
TCATGATATG gave a switch fluorescence ratio of 0.978 ± 0.027.
TCATGCGGTG gave a switch fluorescence ratio of 0.967 ± 0.01.
In the case of TCATGCGTAA, the switch fluorescence ratio is reported as 2.03 ± 0.069.
TCATGGGGTA was tested, and the switch fluorescence ratio was 0.9617 ± 0.004.
TCATGGGGTG gave a switch fluorescence ratio of 1.05 ± 0.07.
In the case of TCATGGTCTG, the switch fluorescence ratio is reported as 1 ± 0.012.
Sequence TCATGTGAAA has a switch fluorescence ratio of 1.03 ± 0.021.
In the case of TCATGTTAAA, the switch fluorescence ratio is reported as 0.98647 ± 0.0005.
For TCATGTTTTT, the switch fluorescence ratio was 1.05 ± 0.14.
TCATTAATTG showed a switch fluorescence ratio of 1.024 ± 0.0078.
In the case of TCATTAGAAA, the switch fluorescence ratio is reported as 1 ± 0.013.
Work on TCATTATGTG yielded a switch fluorescence ratio of 0.98 ± 0.023.
TCATTATTCT was tested, and the switch fluorescence ratio was 0.97 ± 0.012.
For TCATTCGGGG, the switch fluorescence ratio was 0.973 ± 0.016.
In the case of TCATTCGTCG, the switch fluorescence ratio is reported as 0.9712 ± 0.0031.
TCATTGCTTT showed a switch fluorescence ratio of 1 ± 0.015.
TCATTGGTTA was tested, and the switch fluorescence ratio was 1.02 ± 0.042.
With TCATTGTGAG the switch fluorescence ratio was 1 ± 0.038.
In the case of TCATTGTTGG, the switch fluorescence ratio is reported as 1 ± 0.023.
With TCATTTGGTT the switch fluorescence ratio was 0.988 ± 0.042.
Work on TCATTTGTGC yielded a switch fluorescence ratio of 1.01 ± 0.039.
In the case of TCATTTTGGG, the switch fluorescence ratio is reported as 0.999 ± 0.028.
With TCCAAAAACG the switch fluorescence ratio was 1.15 ± 0.21.
TCCAAACCAG was tested, and the switch fluorescence ratio was 1.06 ± 0.012.
TCCAAAGGGC gave a switch fluorescence ratio of 1.07 ± 0.024.
Work on TCCAAATTAC yielded a switch fluorescence ratio of 2.08 ± 0.064.
Sequence TCCAAGACGG has a switch fluorescence ratio of 1.02 ± 0.046.
Work on TCCAAGCTGG yielded a switch fluorescence ratio of 1.03 ± 0.025.
For TCCAAGGTCC, the switch fluorescence ratio was 1.04 ± 0.042.
With TCCAGAAGGC the switch fluorescence ratio was 1.09 ± 0.13.
In the case of TCCAGAAGTT, the switch fluorescence ratio is reported as 1.07 ± 0.057.
For TCCAGACAGT, the switch fluorescence ratio was 0.984 ± 0.026.
For TCCAGAGGGA, the switch fluorescence ratio was 1.28 ± 0.23.
In the case of TCCAGCTGTG, the switch fluorescence ratio is reported as 0.9916 ± 0.0022.
TCCAGGACCA showed a switch fluorescence ratio of 1.03 ± 0.042.
TCCAGGCGAA was tested, and the switch fluorescence ratio was 1.08 ± 0.038.
With TCCAGGGCTT the switch fluorescence ratio was 1.06 ± 0.013.
For TCCAGGGGGC, the switch fluorescence ratio was 1.18 ± 0.16.
For TCCATAAGGG, the switch fluorescence ratio was 1.01 ± 0.023.
Sequence TCCATGGGTG has a switch fluorescence ratio of 1.52 ± 0.033.
In the case of TCCATGTTTT, the switch fluorescence ratio is reported as 1.14 ± 0.22.
Work on TCCATTGAAC yielded a switch fluorescence ratio of 1.017 ± 0.0026.
Sequence TCCATTTTGG has a switch fluorescence ratio of 0.998 ± 0.039.
For TCCCACTGCT, the switch fluorescence ratio was 1.03 ± 0.034.
In the case of TCCCATCTGT, the switch fluorescence ratio is reported as 0.984 ± 0.031.
TCCCCGACGT was tested, and the switch fluorescence ratio was 1.53 ± 0.22.
In the case of TCCCCGCGCT, the switch fluorescence ratio is reported as 1.25 ± 0.37.
For TCCCGAAGAT, the switch fluorescence ratio was 1.03 ± 0.023.
TCCCGCGGCT showed a switch fluorescence ratio of 1.08 ± 0.045.
With TCCCGCTGGG the switch fluorescence ratio was 1.17 ± 0.22.
TCCCGGTCCG gave a switch fluorescence ratio of 1 ± 0.027.
TCCCTCCCCT was tested, and the switch fluorescence ratio was 1.25 ± 0.056.
TCCCTGGTAT showed a switch fluorescence ratio of 1.04 ± 0.014.
With TCCCTGTTGC the switch fluorescence ratio was 1.09 ± 0.045.
In the case of TCCCTTTGGC, the switch fluorescence ratio is reported as 1.01 ± 0.04.
With TCCGAAAAAG the switch fluorescence ratio was 1.33 ± 0.44.
In the case of TCCGAAATCA, the switch fluorescence ratio is reported as 1.6 ± 0.48.
TCCGAAGGAA was tested, and the switch fluorescence ratio was 1.11 ± 0.042.
With TCCGAATGCG the switch fluorescence ratio was 1.11 ± 0.0041.
Work on TCCGACGTAG yielded a switch fluorescence ratio of 1.19 ± 0.31.
TCCGAGGCCA gave a switch fluorescence ratio of 3.91 ± 3.2.
TCCGAGGCGG gave a switch fluorescence ratio of 2.131 ± 0.017.
Sequence TCCGAGGGCT has a switch fluorescence ratio of 1.59 ± 0.084.
In the case of TCCGAGTGAG, the switch fluorescence ratio is reported as 1.13 ± 0.058.
TCCGATTGAA gave a switch fluorescence ratio of 1.08 ± 0.011.
For TCCGCAGAG, the switch fluorescence ratio was 6.2 ± 0.49.
Sequence TCCGCTTGTA has a switch fluorescence ratio of 1.39 ± 0.11.
TCCGCTTTTT showed a switch fluorescence ratio of 1.1 ± 0.15.
With TCCGGAGGGA the switch fluorescence ratio was 1.04 ± 0.089.
TCCGGCGGTG showed a switch fluorescence ratio of 1.03 ± 0.027.
TCCGGCTTTG showed a switch fluorescence ratio of 0.953 ± 0.075.
For TCCGGGAAAT, the switch fluorescence ratio was 2.88 ± 0.66.
With TCCGGGAGGG the switch fluorescence ratio was 1.02 ± 0.053.
TCCGGGATCC gave a switch fluorescence ratio of 1.25 ± 0.04.
For TCCGGGCCTT, the switch fluorescence ratio was 1.02 ± 0.09.
In the case of TCCGGGGGCA, the switch fluorescence ratio is reported as 1.59 ± 0.027.
TCCGGGGTGG showed a switch fluorescence ratio of 1.022 ± 0.0097.
For TCCGGTTCCT, the switch fluorescence ratio was 1.07 ± 0.036.
TCCGGTTTTT gave a switch fluorescence ratio of 1.07 ± 0.16.
TCCGTATATT gave a switch fluorescence ratio of 1.103 ± 0.0024.
Sequence TCCGTGAGAT has a switch fluorescence ratio of 1.44 ± 0.047.
In the case of TCCGTGTGTG, the switch fluorescence ratio is reported as 0.989 ± 0.0075.
With TCCTCAGCGT the switch fluorescence ratio was 3 ± 1.
For TCCTGATGTT, the switch fluorescence ratio was 0.982 ± 0.046.
Work on TCCTGATTGA yielded a switch fluorescence ratio of 0.984 ± 0.063.
TCCTGTGAAC was tested, and the switch fluorescence ratio was 1.04 ± 0.046.
In the case of TCCTGTGGGT, the switch fluorescence ratio is reported as 0.99 ± 0.036.
TCCTGTTTTC showed a switch fluorescence ratio of 0.987 ± 0.021.
In the case of TCCTTATAGG, the switch fluorescence ratio is reported as 1 ± 0.044.
TCCTTCGGTT was tested, and the switch fluorescence ratio was 1.393 ± 0.0023.
For TCCTTGTTTT, the switch fluorescence ratio was 1 ± 0.028.
In the case of TCCTTTAAAT, the switch fluorescence ratio is reported as 1.13 ± 0.0032.
